Assay results from US20160272683A1 (Novo Nordisk, published 2016).
Numbered stars: 1 amine (or outer) side, 2 acyl side, 3 side chain; on linkers, the order of the positions; unused ones are H or OH. * marks the point of attachment. C20 diacid = O=C(O)CCCCCCCCCCCCCCCCCCC(=O)*; C18 diacid = O=C(O)CCCCCCCCCCCCCCCCC(=O)*; γGlu = O=C(O)[C@H](CCC(=O)[*:2])N[*:1]

T1: human amylin 3(a) receptor (human calcitonin receptor co-expressed with RAMP-3) (human, UniProt P30988 25-474; O60896 24-148, limits assumed)
T1 sequence (looked up) 1: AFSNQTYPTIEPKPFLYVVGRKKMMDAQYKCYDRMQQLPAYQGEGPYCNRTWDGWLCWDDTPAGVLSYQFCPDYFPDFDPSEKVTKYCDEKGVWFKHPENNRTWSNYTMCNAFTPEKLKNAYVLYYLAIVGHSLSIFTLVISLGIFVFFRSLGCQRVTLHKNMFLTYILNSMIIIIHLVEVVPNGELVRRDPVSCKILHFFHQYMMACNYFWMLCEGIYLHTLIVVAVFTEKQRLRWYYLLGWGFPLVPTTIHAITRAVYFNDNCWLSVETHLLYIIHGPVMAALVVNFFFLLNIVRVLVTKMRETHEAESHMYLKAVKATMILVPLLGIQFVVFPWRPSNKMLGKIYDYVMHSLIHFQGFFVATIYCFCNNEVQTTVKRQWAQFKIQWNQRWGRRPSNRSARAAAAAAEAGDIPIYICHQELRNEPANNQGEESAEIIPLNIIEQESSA
T1 sequence (looked up) 2: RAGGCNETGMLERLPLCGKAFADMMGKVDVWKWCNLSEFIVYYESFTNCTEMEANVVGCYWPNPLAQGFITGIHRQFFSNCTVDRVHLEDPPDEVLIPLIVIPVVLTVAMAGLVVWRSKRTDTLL

T2: human calcitonin receptor (human, UniProt P30988 25-474)
T2 sequence (looked up): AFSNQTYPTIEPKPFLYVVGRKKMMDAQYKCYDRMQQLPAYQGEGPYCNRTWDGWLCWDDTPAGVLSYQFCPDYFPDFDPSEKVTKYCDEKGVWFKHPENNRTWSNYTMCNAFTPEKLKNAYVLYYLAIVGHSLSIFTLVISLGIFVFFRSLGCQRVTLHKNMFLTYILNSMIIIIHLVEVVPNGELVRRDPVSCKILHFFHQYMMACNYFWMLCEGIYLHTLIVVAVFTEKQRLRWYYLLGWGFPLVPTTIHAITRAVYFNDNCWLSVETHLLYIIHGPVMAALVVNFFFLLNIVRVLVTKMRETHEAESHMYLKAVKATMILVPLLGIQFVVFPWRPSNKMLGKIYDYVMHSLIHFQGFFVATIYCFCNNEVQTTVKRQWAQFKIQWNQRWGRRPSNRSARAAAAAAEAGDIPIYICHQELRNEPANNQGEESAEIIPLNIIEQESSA


Assays:
[1] = target: T1, human amylin 3(a) receptor (human …); experiment: cell-based or functional assay
[2] = target: T2, human calcitonin receptor; experiment: cell-based or functional assay

| Binder | hAmylin-R funct. EC50 (pM) [1] [pM] | hCTR funct. EC50 (pM) [2] [pM] |
| --- | --- | --- |
| {C20 diacid-γGlu}-ASELSTASLGRLSAELHELSTYPRTETGSGSY-NH2 (SMILES CC(C)C[C@H](NC(=O)[C@H](CO)NC(=O)[C@H](C)NC(=O)[C@@H](NC(=O)[C@H](CO)NC(=O)[C@H](CC(C)C)NC(=O)[C@H](CCC(=O)O)NC(=O)[C@H](CO)NC(=O)[C@H](C)NC(=O)CC[C@H](NC(=O)CCCCCCCCCCCCCCCCCCC(=O)O)C(=O)O)[C@@H](C)O)C(=O)NCC(=O)N[C@@H](CCCNC(=N)N)C(=O)N[C@@H](CC(C)C)C(=O)N[C@@H](CO)C(=O)N[C@@H](C)C(=O)N[C@@H](CCC(=O)O)C(=O)N[C@@H](CC(C)C)C(=O)N[C@@H](Cc1c[nH]cn1)C(=O)N[C@@H](CCC(=O)O)C(=O)N[C@@H](CC(C)C)C(=O)N[C@@H](CO)C(=O)N[C@H](C(=O)N[C@@H](Cc1ccc(O)cc1)C(=O)N1CCC[C@H]1C(=O)N[C@@H](CCCNC(=N)N)C(=O)N[C@H](C(=O)N[C@@H](CCC(=O)O)C(=O)N[C@H](C(=O)NCC(=O)N[C@@H](CO)C(=O)NCC(=O)N[C@@H](CO)C(=O)N[C@@H](Cc1ccc(O)cc1)C(N)=O)[C@@H](C)O)[C@@H](C)O)[C@@H](C)O) [[N-terminal(C20 diacid-gGlu), des1, 9S, 21S, 23Y, 30S, 31G, 33Y]mimylin] | 17 | 16 |
| {C18 diacid-γGlu}-ASELTTAVLGRLSAELHELATLPRTETGTGTP-NH2 [[N-terminal(C18 diacid-gGlu), des1, 6T, 9V, 30T, 31G, 32T]mimylin] | 65 | 32 |
| {C20 diacid-γGlu}-ASELSTAALGRLSAELHELSTYPRTETGSGSY-NH2 (SMILES CC(C)C[C@H](NC(=O)[C@H](C)NC(=O)[C@H](C)NC(=O)[C@@H](NC(=O)[C@H](CO)NC(=O)[C@H](CC(C)C)NC(=O)[C@H](CCC(=O)O)NC(=O)[C@H](CO)NC(=O)[C@H](C)NC(=O)CC[C@H](NC(=O)CCCCCCCCCCCCCCCCCCC(=O)O)C(=O)O)[C@@H](C)O)C(=O)NCC(=O)N[C@@H](CCCNC(=N)N)C(=O)N[C@@H](CC(C)C)C(=O)N[C@@H](CO)C(=O)N[C@@H](C)C(=O)N[C@@H](CCC(=O)O)C(=O)N[C@@H](CC(C)C)C(=O)N[C@@H](Cc1c[nH]cn1)C(=O)N[C@@H](CCC(=O)O)C(=O)N[C@@H](CC(C)C)C(=O)N[C@@H](CO)C(=O)N[C@H](C(=O)N[C@@H](Cc1ccc(O)cc1)C(=O)N1CCC[C@H]1C(=O)N[C@@H](CCCNC(=N)N)C(=O)N[C@H](C(=O)N[C@@H](CCC(=O)O)C(=O)N[C@H](C(=O)NCC(=O)N[C@@H](CO)C(=O)NCC(=O)N[C@@H](CO)C(=O)N[C@@H](Cc1ccc(O)cc1)C(N)=O)[C@@H](C)O)[C@@H](C)O)[C@@H](C)O) [[N-terminal(C20 diacid-gGlu), des1, 21S, 23Y, 30S, 31G, 33Y]mimylin] | 50 | 34 |
| {C18 diacid-γGlu}-ASEVSTAVVGRLSAELHELATLPRTETGSGSP-NH2 (SMILES CC(C)C[C@H](NC(=O)[C@H](CCC(=O)O)NC(=O)[C@H](Cc1c[nH]cn1)NC(=O)[C@H](CC(C)C)NC(=O)[C@H](CCC(=O)O)NC(=O)[C@H](C)NC(=O)[C@H](CO)NC(=O)[C@H](CC(C)C)NC(=O)[C@H](CCCNC(=N)N)NC(=O)CNC(=O)[C@@H](NC(=O)[C@@H](NC(=O)[C@H](C)NC(=O)[C@@H](NC(=O)[C@H](CO)NC(=O)[C@@H](NC(=O)[C@H](CCC(=O)O)NC(=O)[C@H](CO)NC(=O)[C@H](C)NC(=O)CC[C@H](NC(=O)CCCCCCCCCCCCCCCCC(=O)O)C(=O)O)C(C)C)[C@@H](C)O)C(C)C)C(C)C)C(=O)N[C@@H](C)C(=O)N[C@H](C(=O)N[C@@H](CC(C)C)C(=O)N1CCC[C@H]1C(=O)N[C@@H](CCCNC(=N)N)C(=O)N[C@H](C(=O)N[C@@H](CCC(=O)O)C(=O)N[C@H](C(=O)NCC(=O)N[C@@H](CO)C(=O)NCC(=O)N[C@@H](CO)C(=O)N1CCC[C@H]1C(N)=O)[C@@H](C)O)[C@@H](C)O)[C@@H](C)O) [[N-terminal(C18 diacid-gGlu), des1, 5V, 9V, 10V, 30S, 31G]mimylin] | 11 | 8 |

Results, then the binder that gave them:

| hAmylin-R funct. EC50 (pM) [1] [pM] | hCTR funct. EC50 (pM) [2] [pM] | Binder |
| --- | --- | --- |
| 12 | 9 | {C18 diacid}-EASELSTAVLGRLSAELHELATLPRTETGPESP-NH2 (SMILES CC(C)C[C@H](NC(=O)[C@H](CCC(=O)O)NC(=O)[C@H](Cc1c[nH]cn1)NC(=O)[C@H](CC(C)C)NC(=O)[C@H](CCC(=O)O)NC(=O)[C@H](C)NC(=O)[C@H](CO)NC(=O)[C@H](CC(C)C)NC(=O)[C@H](CCCNC(=N)N)NC(=O)CNC(=O)[C@H](CC(C)C)NC(=O)[C@@H](NC(=O)[C@H](C)NC(=O)[C@@H](NC(=O)[C@H](CO)NC(=O)[C@H](CC(C)C)NC(=O)[C@H](CCC(=O)O)NC(=O)[C@H](CO)NC(=O)[C@H](C)NC(=O)[C@H](CCC(=O)O)NC(=O)CCCCCCCCCCCCCCCCC(=O)O)[C@@H](C)O)C(C)C)C(=O)N[C@@H](C)C(=O)N[C@H](C(=O)N[C@@H](CC(C)C)C(=O)N1CCC[C@H]1C(=O)N[C@@H](CCCNC(=N)N)C(=O)N[C@H](C(=O)N[C@@H](CCC(=O)O)C(=O)N[C@H](C(=O)NCC(=O)N1CCC[C@H]1C(=O)N[C@@H](CCC(=O)O)C(=O)N[C@@H](CO)C(=O)N1CCC[C@H]1C(N)=O)[C@@H](C)O)[C@@H](C)O)[C@@H](C)O) [[N-terminal(C18 diacid), 9V]mimylin] |
| 42 | 30 | {C18 diacid-γGlu}-ASELTTAVLGRLSAELHELATLPRTETGSGTP-NH2 [[N-terminal(C18 diacid-gGlu), des1, 6T, 9V, 30S, 31G, 32T]mimylin] |
| 20 | 23 | {C20 diacid-γGlu}-ASELSTATLGRLSAELHELSTYPRTETGSGSY-NH2 (SMILES CC(C)C[C@H](NC(=O)[C@H](CCCNC(=N)N)NC(=O)CNC(=O)[C@H](CC(C)C)NC(=O)[C@@H](NC(=O)[C@H](C)NC(=O)[C@@H](NC(=O)[C@H](CO)NC(=O)[C@H](CC(C)C)NC(=O)[C@H](CCC(=O)O)NC(=O)[C@H](CO)NC(=O)[C@H](C)NC(=O)CC[C@H](NC(=O)CCCCCCCCCCCCCCCCCCC(=O)O)C(=O)O)[C@@H](C)O)[C@@H](C)O)C(=O)N[C@@H](CO)C(=O)N[C@@H](C)C(=O)N[C@@H](CCC(=O)O)C(=O)N[C@@H](CC(C)C)C(=O)N[C@@H](Cc1c[nH]cn1)C(=O)N[C@@H](CCC(=O)O)C(=O)N[C@@H](CC(C)C)C(=O)N[C@@H](CO)C(=O)N[C@H](C(=O)N[C@@H](Cc1ccc(O)cc1)C(=O)N1CCC[C@H]1C(=O)N[C@@H](CCCNC(=N)N)C(=O)N[C@H](C(=O)N[C@@H](CCC(=O)O)C(=O)N[C@H](C(=O)NCC(=O)N[C@@H](CO)C(=O)NCC(=O)N[C@@H](CO)C(=O)N[C@@H](Cc1ccc(O)cc1)C(N)=O)[C@@H](C)O)[C@@H](C)O)[C@@H](C)O) [[N-terminal(C20 diacid-gGlu), des1, 9T, 21S, 23Y, 30S, 31G, 33Y]mimylin] |
| 64 | 24 | {C20 diacid-γGlu}-ASELSTAALGHLSAELHELATLPHTETGTGTP-NH2 (SMILES CC(C)C[C@H](NC(=O)[C@H](C)NC(=O)[C@H](C)NC(=O)[C@@H](NC(=O)[C@H](CO)NC(=O)[C@H](CC(C)C)NC(=O)[C@H](CCC(=O)O)NC(=O)[C@H](CO)NC(=O)[C@H](C)NC(=O)CC[C@H](NC(=O)CCCCCCCCCCCCCCCCCCC(=O)O)C(=O)O)[C@@H](C)O)C(=O)NCC(=O)N[C@@H](Cc1c[nH]cn1)C(=O)N[C@@H](CC(C)C)C(=O)N[C@@H](CO)C(=O)N[C@@H](C)C(=O)N[C@@H](CCC(=O)O)C(=O)N[C@@H](CC(C)C)C(=O)N[C@@H](Cc1c[nH]cn1)C(=O)N[C@@H](CCC(=O)O)C(=O)N[C@@H](CC(C)C)C(=O)N[C@@H](C)C(=O)N[C@H](C(=O)N[C@@H](CC(C)C)C(=O)N1CCC[C@H]1C(=O)N[C@@H](Cc1c[nH]cn1)C(=O)N[C@H](C(=O)N[C@@H](CCC(=O)O)C(=O)N[C@H](C(=O)NCC(=O)N[C@H](C(=O)NCC(=O)N[C@H](C(=O)N1CCC[C@H]1C(N)=O)[C@@H](C)O)[C@@H](C)O)[C@@H](C)O)[C@@H](C)O)[C@@H](C)O) [[N-terminal(C20 diacid-gGlu), des1, 12H, 25H, 30T, 31G, 32T]mimylin] |
| 47 | 28 | {C20 diacid-γGlu}-ASGLSTAVLGRLSAELHELATYPRTETGSGTP-NH2 (SMILES CC(C)C[C@H](NC(=O)CNC(=O)[C@H](CO)NC(=O)[C@H](C)NC(=O)CC[C@H](NC(=O)CCCCCCCCCCCCCCCCCCC(=O)O)C(=O)O)C(=O)N[C@@H](CO)C(=O)N[C@H](C(=O)N[C@@H](C)C(=O)N[C@H](C(=O)N[C@@H](CC(C)C)C(=O)NCC(=O)N[C@@H](CCCNC(=N)N)C(=O)N[C@@H](CC(C)C)C(=O)N[C@@H](CO)C(=O)N[C@@H](C)C(=O)N[C@@H](CCC(=O)O)C(=O)N[C@@H](CC(C)C)C(=O)N[C@@H](Cc1c[nH]cn1)C(=O)N[C@@H](CCC(=O)O)C(=O)N[C@@H](CC(C)C)C(=O)N[C@@H](C)C(=O)N[C@H](C(=O)N[C@@H](Cc1ccc(O)cc1)C(=O)N1CCC[C@H]1C(=O)N[C@@H](CCCNC(=N)N)C(=O)N[C@H](C(=O)N[C@@H](CCC(=O)O)C(=O)N[C@H](C(=O)NCC(=O)N[C@@H](CO)C(=O)NCC(=O)N[C@H](C(=O)N1CCC[C@H]1C(N)=O)[C@@H](C)O)[C@@H](C)O)[C@@H](C)O)[C@@H](C)O)C(C)C)[C@@H](C)O) [[N-terminal(C20 diacid-gGlu), des1, 4G, 9V, 23Y, 30S, 31G, 32T]mimylin] |
